Reference: patent publication US6825001B2, “DNA molecules and protein displaying improved triazine compound degrading ability” (Regents of the University of Minnesota, priority 1997, dated 2004)
Entries after “also recorded” stand apart in the source; their conditions may differ.

B1: A40: AtzA homolog, nucleic acid SEQ ID NO:17, amino acid SEQ ID NO:22 (protein)
chain: MQTLSIQHGTLVTMDQYRRVLGDSWVHVQDGRIVALGVHAKSVPPPADRVIDARGKVVLPGFINAHTHVNQILLRGGPSHGRQFYDWLFNVVYPGQKAMRPEDVAVAVRLYCAEAVRSGITTINENADSAIYPGNIEAAMAVYGEVGVRVVYARMFFDRMDGRIQGYVDALKARSPQVELCSIMEETAVAKDRITALSDQYHGTAGGRISVWPAPATTTAVTVEGMRWAQAFARDRAVMWTLHMAESDHDGRIHGMSPAEYMECYGLLDERLQVAHCVYFDRKDVRLLHRHNVKVASQVVSNAYLGSGVAPVPEMVERGMAVGIGTDNGNSNDSVNMIGDMKFMAHIHRAVHRDADVLTPEKILEMATIDGARSLGMDHEIGSIETGKRADLILLDLRHPQTTPHHHLAATIVFQAYGNEVDTVLIDGNVVMENRCLSFLPPERELAFLEGAQSRATAILQRANMVANPAWRSLEMTPLLHPPPLEEIAAILARLG
B2: A46: AtzA homolog, nucleic acid SEQ ID NO:20, amino acid SEQ ID NO:25 (protein)
chain: MQTLSIQHGTLVTMDQYRRVLGDSWVHVQDGRIVALGVHAESVPPPADQVIDARGKVVLPGFINAHTHVNQILLRGGPSHGRQFHDWLFNVVYPGQKAMRPEDVAVAVRLYCAEAVRSGITTINENADSAIYPGNIEAAMAVYGEVGVRVVYARMFFDRMDGRIQGYVDALKARSPQVELCSIMEETAVAKDRITALSDQYHGTAGGRISVWPAPATTTAVTVEGMRWAQAFARDRAVMWTLHMAESDHDGRIHGMSPAEYMECYGLLDERLQVAHCVYFDRKDVRLLHRHNVKVASQVVSNAYLGSGVAPVPEMVERGMAVGIGTDNGNSNDSVNMIGDMKFMAHIHRAVHRDADVLTPEKILEMATIDGARSLGMDHEIGSIETGKRADLILLDLRHPQTTPHHHLAATIVFQAYGNEVDTVLIDGNVVMENRRLSFLPPERELAFLEEAQSRATAILQRANMVANPAWRSLEMTPLLHPPPLEEIAAILARLG
B3: A42: AtzA homolog, nucleic acid SEQ ID NO:18, amino acid SEQ ID NO:23 (protein)
chain: MQTLSIQHGTLVTMDQYRRVLGDSWVHVQDGRIVALGVHAESVPPPADRVIDARGKVVLPGFINAHTHVNQILLRGGPSHGRQFYDWLFNVVYPGQKAMRPEDVAVAVRLYCAEAVRSGITTINENADSAIYPGNIEAAMAVYGEVGVRVVYARMFFDRMDGRIQGYVDALKARSPQVELCSIMEETAVAKDRITALSDQYHGTAGGRISVWPAPATTTAVTVEGMRWAQAFARDRAVMWTLHMAESDHDERIHGMSPAEYMECHGLLDERLQVAHCVYFDRKDVRLLHRHNVKVASQVVSNAYLGSGVAPVPEMVERGMAMGIGTDNGNSNDSVNMIGDMKFMAHIHRAVHRDADVLTPEKILEMATIDGARSLGMDHEIGSIETGKRADLILLDLRHPQTTPHHHLAATIVFQAYGNEVDTVLIDGNVVMENRRLSFLPPERELAFLEEAQSRATAILQRANMVANPAWRSLEMTPLLHPPPLEEIAAILARLG
B4: A60: AtzA homolog, nucleic acid SEQ ID NO:21, amino acid SEQ ID NO:26 (protein)
chain: MQTLSIQHGTLVTMDQYRRVLGDSWVHVQDGRIVALGVHAESVPPPADRVIDARGKVVLPGFINAHTHVNQILLRGGPSHGRQFYDWLFNVVYPGQKAMRPEDVAVAVRLYCAEAVRSGITTINENADSAIYPGNIEAAMAVYGEVGVRVVYARMFFDRMDRRIQGYVDALKARSPQVELCSIMEETAVAKDRITALSDQYHGTAGGRISVWPAPATTTAVTVEGMRWAQAFARDRAVMWTLHMAESDHDERIHGMSPAEYMECYGLLDERLQVAHCVYFDRKDIRLLHRHNVKVASQAVSNAYLGSGVAPVPEMVERGMAVGIGTDNGNSNDSVNMIGDMKFMAHIHRAVHRDADVLTPEKILEMATIDGARSLGMDHEIGSIETGKRADLILLDLRHPQTTPHHHLAATIVFQAYGNEVDTVLIDGNVVMENRRLSFLPPERELAFLEEAQSRATAILQRANMVANPAWRSLEMTPLLHPPPLEEIAAILAQLG
B5: A44: AtzA homolog, nucleic acid SEQ ID NO:19, amino acid SEQ ID NO:24 (protein)
chain: MQTLSIQHGTLVTMDQYRRVLGDSWVHVQDGRIVALGVHAESVPPPADRVIDARGKVVLPGFINAHTHVNQILLRGGPSHGRQFYDWLFNVVYPGQKAMRPEDVAVAVRLYCAEAVRSGITTINENADSAIYPGNIEAAMAVYGEVGVRVVYARMFFDRMDGRIQGYVDALKARSPQVELCSIMEETAVAKDRITALSDQYHGTAGGRISVWPAPATTTAVTVEGMRWAQAFARDRAVMWTLHMAESDHDERIHGMSPAEYMECYGLLDERLQVAHCVYFDRKDVRLLHRHNVKVASQVVSNAYLGSGVAPVPEMVERGMAVGIGTDNGNSNDSVNMIGDMKFMAHIHRAVHRDADVLTPEKILEMATIDGARSLGMDHEIGSIETGKRADLILLDLRHPQTTPHHHLAATIVFQAYGNEVDTVLIDGNVVMENRRLSFLPPERELAFLEEAQSRATAILQRANMVANPAWRSLEMTPLLHPLPLEEIAAILARLG
B6: T7: AtzA homolog, gene SEQ ID NO:4, protein SEQ ID NO:6 (protein)
chain: SAATAALIMKASMVTLTPLFSFSLLNCTRKASRSVMSASSWLVTCGMTTQLRCRFFDGVISALRRVTHYWRHIMQTLSIQHGTLVTMDQYRRVLGDSWVHVQDGRIVALGVHAESVPPPADRVIDARGKVVLPGFINAHTHVNQILLRGGPSHGRQFYDWLFNVVYPGQKAMRPEDVAVAVRLYCAEAVRSGITTINENADSAIYPGNIEAAMAVYGEVGVRVVYARMFFDRMDGRIQGYVDALKARSPQVELCSIMEETAVAKDRITALSDQYHGTAGGRISVWPAPATTTAVTVEGMRWAQAFARDRAVMWTLHMAESDHDERIHGMSPADYMECYGLLDERLQVAHCVYFDRKDVRLLHRHNVKVASQVVSNAYLGSGVAPVPEMVERGMAVGIGTDNGNSNDSVNMIGDMKFMAHIHRAVHRDADVLTPEKILEMATIDGARSLGMDHEIGSIETGKRADLILLDLRHPQTTPHHHLAATIVFQAYGNEVDTVLIDGNVVMENRRLSFLPPERELAFLEEAQSRATAILQRANMVANPAWRSLEMTPLLHPPPLEEIAAILARLGLGGGHDLDGYRIAMNAALPSFARVESLVGEGRLRAPASRRSERPE

Experiments:
[1] = target: T1, wild-type AtzA protein (Pseudomonas sp., UniProt P72156); assay: substrate range of wild-type AtzA protein; assay type: biochemical, Pseudomonas sp. strain ADP
T1 construct: made in house; host or cells: E. coli
Source text: Enzyme Kinetics. […] HPLC analysis was done as described above.

[2] = atrazine-degrading activity of AtzA homologs compared with wild type; conditions: compared with wild-type AtzA or parent homolog
Method: Serial dilutions of the transformation reaction were plated onto LB plates containing 50 μg/ml ampicillin, the remainder of the transformation was stored in 25% glycerol and frozen at −80° C.
Environ. Microbiol., 61, 1451-1457 (1995), at a final concentration of 500 μg/ml to produce an opaque suspension of small particles in the clear agar. […] Positive colonies that most rapidly formed the largest clear zones were selected initially for further analysis. The (approximately) 40 best colonies were picked, pooled, grown in the presence of 50 μg/ml ampicillin and plasmid prepared from them.
Enzyme Kinetics. […] The reactions were stopped by boiling the reaction tubes at specific times, the addition of 500 μl acetonitrile and rapid freezing at −80° C. Thawed samples were centrifuged at 14,000 rpm for 10 minutes, the supernatants were filtered through a […] filter, and placed into crimp-seal HPLC vials. HPLC analysis was done as described above.

[3] = TERBUTHYLAZINE-degrading activity of AtzA homologs; assay type: biochemical; conditions: compared with wild-type enzyme
Method: TERBUTHYLAZINE was incorporated in solid LB medium at a final concentration of about 400-500 μg/ml to produce an opaque suspension of sample particles in the clear agar. […] HPLC analysis was performed with a Hewlett Packard HP 1090 Liquid Chromatograph system equipped with a photodiode array detector and interfaced to an HP 79994A Chemstation. TERBUTHYLAZINE and its metabolites were resolved by using an analytical C^18 reverse-phase Nova-Pak HPLC column (4 μm-diameter spherical packing, 150 by 3.9 mm; Waters Chromatography, Milford, Mass.) and an acetonitrile (ACN) gradient, in water, at a flow rate of 1.0 ml min^−1. Linear gradients of 0 to 6 min, 10 to 25% ACN; 6 to 21 min, 25 to 65% ACN; 21 to 23 min, 65 to 100% ACN; and 23 to 25 min, 100% ACN were used. Spectral data of the column eluent were acquired between 200 and 400 nm (12-nm bandwidth per channel) at a sampling frequency of 640 ms. Spectra were referenced against a signal of 500 nm.
Sample 1 is a control sample without enzyme. […] Sample 3 employed the T7 homolog (SEQ ID NO:6) and Sample 4 employed the A7 homolog (SEQ ID NO:5). Results were determined by HPLC as described above. FIG. 8(a) provides the percentage of TERBUTHYLAZINE remaining after a 15 minute exposure to homologs A7, A11, and T7. Samples 1-10 refer to the effect of homolog activity in the presence of 50 uM of: Manganese (1); Mangnesium (2), EDTA (3); cobalt (4); zinc (5); iron (6); copper (7); nickel (8); no metal (9); or no eznyme (10). FIG. 8(b) provides the relative amount of hydroxyterbuthylazine as a measure of TERBUTHYLAZINE degradation for homologs A7 (solid bar), A11 (hatched bar), or T7 (open bar) in the presence or absence of additives 1-10 (supra).

Molecule | degradation of substrate by wild-type AtzA protein (in words) [1] | atrazine degradation activity (in words) [2] | TERBUTHYLAZINE degradation activity (in words) [3]
Nc1nc(N)nc(Cl)n1 [Desethyldesisopropylatrazine, 2-chloro-4,6-diamino-s-triazine] | did not degrade | – | –
CCNc1nc(N)nc(Cl)n1 [Desisopropylatrazine, 2-chloro-4-ethylamino-6-amino-s-triazine] | acts on | – | –
Nc1nc(N)nc(N)n1 [MELAMINE, 2,4,6-triamino-s-triazine] | did not degrade | – | –
CCNc1nc(Cl)nc(NCC)n1 [SIMAZINE, 2-chloro-4,6-diethylamino-s-triazine] | acts on | – | –
CCNc1nc(Cl)nc(NC(C)(C)C)n1 [TERBUTHYLAZINE, 2-chloro-4-(ethylamino)-6-(tertiarybutyl-amino)-1,3,5-triazine] | only poorly degraded | – | –
CCNc1nc(Cl)nc(NC(C)C)n1 [atrazine, 2-chloro-4-(ethylamino)-6-(isopropylamino)-1,3,5-triazine] | acts on | – | –
CC(C)Nc1nc(N)nc(Cl)n1 [desethylatrazine, 2-chloro-4-amino-6-isopropylamino-s-triazine] | acts on | – | –
B1 | – | improved rate of catalytic activity | –
B2 | – | improved rate of catalytic activity | capable of better degrading
B3 | – | improved rate of catalytic activity | capable of better degrading
B4 | – | improved rate of catalytic activity | capable of better degrading
B5 | – | improved rate of catalytic activity | capable of better degrading
B6 | – | enhanced atrazine degradation activity | better than the wild-type enzyme; also recorded: enhanced TERBUTHYLAZINE degradation activity
